The labels stand for the following.
T1: full-length beta-Catenin (Uniprot ID P35222) (Homo sapiens (Human), UniProt P35222 2-781)
T1 construct: Used full-length in both the FP and the AlphaScreen assay; also called B-Catenin; bCat
T1 sequence: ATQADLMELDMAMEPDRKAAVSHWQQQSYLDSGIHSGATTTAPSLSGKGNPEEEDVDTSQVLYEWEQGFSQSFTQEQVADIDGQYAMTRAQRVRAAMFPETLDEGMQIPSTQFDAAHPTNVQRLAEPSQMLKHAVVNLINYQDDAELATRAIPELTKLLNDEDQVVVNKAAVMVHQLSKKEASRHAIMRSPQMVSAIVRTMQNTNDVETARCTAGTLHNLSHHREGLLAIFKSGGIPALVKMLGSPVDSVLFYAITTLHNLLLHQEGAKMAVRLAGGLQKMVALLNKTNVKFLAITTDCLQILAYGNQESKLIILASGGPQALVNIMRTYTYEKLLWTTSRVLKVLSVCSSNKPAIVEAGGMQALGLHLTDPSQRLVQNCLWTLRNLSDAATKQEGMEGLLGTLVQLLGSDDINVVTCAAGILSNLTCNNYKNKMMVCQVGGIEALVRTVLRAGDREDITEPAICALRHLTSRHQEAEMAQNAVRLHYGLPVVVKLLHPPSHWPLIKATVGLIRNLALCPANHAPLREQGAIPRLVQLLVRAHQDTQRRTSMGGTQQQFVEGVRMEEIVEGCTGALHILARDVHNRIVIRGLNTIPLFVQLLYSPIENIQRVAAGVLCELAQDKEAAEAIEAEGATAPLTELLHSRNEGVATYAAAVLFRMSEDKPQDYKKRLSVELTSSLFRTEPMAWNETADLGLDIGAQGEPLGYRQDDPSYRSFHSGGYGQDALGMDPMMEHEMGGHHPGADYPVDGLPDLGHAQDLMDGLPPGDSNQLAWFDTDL

T2: full-length beta-Catenin (Uniprot ID P35222) (Homo sapiens (Human), UniProt P35222 2-781)
T2 construct: The assay text says 'full-length'; also called B-Catenin; bCat
T2 sequence: T1 sequence

B1: I-49 (peptide)
peptide: Ac-FD[RdN(3)]ADDAAF[S7]AFWQ-NH2
modifications: staple 3-10; also: earlier-eluting HPLC isomer, E/Z not assigned
notes: Stapled peptide; also called Ac-Phe-Asp-RdN-Ala-Asp-Asp-Ala-Ala-Phe-S7-Ala-Phe-Trp-Gln-NH2
B2: I-40 (peptide)
peptide: Ac-FDA[R8]DDAAFV[Az]FWQ-NH2
modifications: staple 4-11; not fully specified; printed as Ac-Phe-Asp-Ala-R8-Asp-Asp-Ala-Ala-Phe-Val-Az-Phe-Trp-Gln-NH2
notes: Stapled peptide composition
B3: I-29 (peptide)
peptide: FDAXDDAAFVXFWQ
modifications: not fully specified; Ac-Phe-Asp-Ala-ReN-Asp-Asp-Ala-Ala-Phe-Val-S6-Phe-Trp-Gln-NH2 as printed: N-terminal acetyl, C-terminal amide, ReN at 4 stapled to S6 at 11
notes: Stapled peptide composition
B4: I-42 (peptide)
peptide: FDAXDDAAFVXFWQ
modifications: not fully specified; Ac-Phe-Asp-Ala-RdN-Asp-Asp-Ala-Ala-Phe-Val-S4-Phe-Trp-Gln-NH2 as printed: N-terminal acetyl, C-terminal amide, RdN at 4 stapled to S4 at 11
notes: Stapled peptide composition
B5: I-39 (peptide)
peptide: Ac-FDA[R8]DDAAFV[Az(3)]FWQ-NH2
modifications: staple 4-11; not fully specified; printed as Ac-Phe-Asp-Ala-R8-Asp-Asp-Ala-Ala-Phe-Val-Az-Phe-Trp-Gln-NH2
notes: Stapled peptide composition
B6: I-31 (peptide)
peptide: Ac-FDA[R7]DDAAFV[PyrS]FWQ-NH2
modifications: staple 4-11; not fully specified; printed as Ac-Phe-Asp-Ala-R7-Asp-Asp-Ala-Ala-Phe-Val-PyrS-Phe-Trp-Gln-NH2
notes: Stapled peptide composition
B7: I-28 (peptide)
peptide: FDAXDDAAFVXFWQ
modifications: not fully specified; Ac-Phe-Asp-Ala-ReN-Asp-Asp-Ala-Ala-Phe-Val-S6-Phe-Trp-Gln-NH2 as printed: N-terminal acetyl, C-terminal amide, ReN at 4 stapled to S6 at 11
notes: Stapled peptide composition
B8: I-32 (peptide)
peptide: FDAXDDAAFVXFWQ
modifications: not fully specified; Ac-Phe-Asp-Ala-Az-Asp-Asp-Ala-Ala-Phe-Val-S7-Phe-Trp-Gln-NH2 as printed: N-terminal acetyl, C-terminal amide, Az at 4 stapled to S7 at 11
notes: Stapled peptide composition
B9: I-41 (peptide)
peptide: FDAXDDAAFVXFWQ
modifications: not fully specified; Ac-Phe-Asp-Ala-RdN-Asp-Asp-Ala-Ala-Phe-Val-S4-Phe-Trp-Gln-NH2 as printed: N-terminal acetyl, C-terminal amide, RdN at 4 stapled to S4 at 11
notes: Stapled peptide composition
B10: I-43 (peptide)
peptide: FDAXDDAAFVXFWQ
modifications: not fully specified; Ac-Phe-Asp-Ala-RgN-Asp-Asp-Ala-Ala-Phe-Val-S8-Phe-Trp-Gln-NH2 as printed: N-terminal acetyl, C-terminal amide, RgN at 4 stapled to S8 at 11
notes: Stapled peptide composition

Starred links: 1 amine or outer side, 2 acyl side, 3 side chain; linkers in the order of their positions; H or OH if unused. Positions of bridges follow the written chain, without caps; N, C: chain ends. Non-standard residues stand in square brackets, D forms with d. Primed or numbered codes have the meaning given here. RdN(3) = (R)-4-(((allyloxy)carbonyl)(methyl)amino)-2-amino-2-methylbutanoic acid, stapling residue, C=CCOC(=O)N(C)CC[C@@](C)(N[*:1])C(=O)[*:2]; RgN = (R)-3-(((allyloxy)carbonyl)(methyl)amino)-2-amino-2-methylpropanoic acid (stapling residue), C=CCOC(=O)N(C)C[C@@](C)(N[*:1])C(=O)[*:2]; Az″ = 1-((allyloxy)carbonyl)-3-aminoazetidine-3-carboxylic acid (staple end via allyl carbamate), C=CCOC(=O)N1CC(N[*:1])(C(=O)[*:2])C1; PyrS″ = (S)-1-((allyloxy)carbonyl)-3-aminopyrrolidine-3-carboxylic acid (stapling residue), C=CCOC(=O)N1CC[C@@](N[*:1])(C(=O)[*:2])C1; SeN = (S)-5-(((allyloxy)carbonyl)(methyl)amino)-2-amino-2-methylpentanoic acid, C=CCOC(=O)N(C)CCC[C@](C)(N[*:1])C(=O)[*:2]; SdN = (S)-4-(((allyloxy)carbonyl)(methyl)amino)-2-amino-2-methylbutanoic acid, C=CCOC(=O)N(C)CC[C@](C)(N[*:1])C(=O)[*:2]; SgN = (S)-3-(((allyloxy)carbonyl)(methyl)amino)-2-amino-2-methylpropanoic acid, C=CCOC(=O)N(C)C[C@](C)(N[*:1])C(=O)[*:2]; Az = 1-((allyloxy)carbonyl)-3-aminoazetidine-3-carboxylic acid (stapling residue), C=CCOC(=O)N1CC(N[*:1])(C(=O)[*:2])C1; PyrS = (S)-1-((allyloxy)carbonyl)-3-aminopyrrolidine-3-carboxylic acid, C=CCOC(=O)N1CC[C@@](N[*:1])(C(=O)[*:2])C1; Az(3) = 1-((allyloxy)carbonyl)-3-aminoazetidine-3-carboxylic acid, C=CCOC(=O)N1CC(N[*:1])(C(=O)[*:2])C1; R7″ = (R)-2-amino-2-methylnon-8-enoic acid (stapling residue), C=CCCCCC[C@@](C)(N[*:1])C(=O)[*:2]; R7 = (R)-2-amino-2-methylnon-8-enoic acid, C=CCCCCC[C@@](C)(N[*:1])C(=O)[*:2]; R4 = (R)-2-amino-2-methylhex-5-enoic acid, C=CCC[C@@](C)(N[*:1])C(=O)[*:2]; S7 = C[C@@](CCCCCC=[*:3])(N[*:1])C(=O)[*:2]; R8 = C=CCCCCCC[C@@](C)(N)C(=O)O; S8 = C=CCCCCCC[C@](C)(N)C(=O)O; R5 = C=CCCC[C@@](C)(N)C(=O)O

In the first assay the target is T1, full-length beta-Catenin (Uniprot ID …). The experiment in a line: AlphaScreen competition; full-length beta-catenin, biotin-TCF4(10-53) probe. As for the experimental part:
(§1) Equal volume of the titrated peptide was added to the plate and incubated for 15 minutes at 20° C. Then 4 uL of donor and 4 uL acceptor beads at 10 ug/mL were added to the plate, for a 16 uL reaction pool and protected from light for 60 minutes at 20° C. prior to read. Reads were performed on a CLARIOstar plate reader (BMG Labtech) in duplicate, and data were fitted to a 1:1 binding model with hill slope using an in-house script. All provided concentrations are final concentrations.
Turning to B1, the EC50 was ≥ 10 µM.

The next assay has as its target T2, full-length beta-Catenin (Uniprot ID …). The experiment in a line: AlphaScreen competition vs biotin-TCF4(10-53) on full-length beta-catenin. Here is the method:
as §1
With Ac-FDA[RgN]DDAAFV[S7]FWQ-NH2 (staple 4-11, Stapled peptide composition) [I-45], the EC50 is ≥ 10 µM.

As for B2, the EC50 was ≥ 10 µM.

With Ac-FDA[R7]DDAAFV[Az(3)]FWQ-NH2 (staple 4-11, Stapled peptide composition) [I-38], the EC50 was ≥ 10 µM.

For the molecule B3, the EC50 was ≥ 10 µM.

The molecule B4 showed an EC50 of 9.34 µM. In other words, the single-digit micromolar range.

Take B5: the EC50 was ≥ 10 µM.

Molecule B6 returned an EC50 of 7.22 µM.

B7 had an EC50 of 8.46 µM.

Molecule B8 registered an EC50 of 7.35 µM. This EC50 and that of the molecule before are within 1.5-fold of each other.

Consider Ac-FDA[RgN]DDAAFV[S8]FWQ-NH2 (staple 4-11, Stapled peptide composition) [I-44], for which the EC50 is ≥ 10 µM.

On to Ac-FDA[R5]DDAAFV[SdN]FWQ-NH2 (staple 4-11, Stapled peptide composition) [I-37], for which the EC50 is ≥ 10 µM.

The molecule Ac-FDA[R7″]DDAAFV[PyrS″]FWQ-NH2 (staple 4-11, Stapled peptide composition) [I-30] returned an EC50 of 8.82 µM. In other words, the single-digit micromolar range.

Turning to Ac-FDA[R8]DDAAFV[SgN]FWQ-NH2 (staple 4-11, Stapled peptide composition) [I-34], the EC50 was ≥ 10 µM.

The molecule Ac-FDA[R4]DDAAFV[SeN]FWQ-NH2 (staple 4-11, Stapled peptide composition) [I-36] came in with a half-maximal effective concentration (EC50) of 8.27 µM.

On to Ac-FDA[Az(3)]DDAAFV[S7]FWQ-NH2 (staple 4-11, Stapled peptide composition) [I-33], for which the EC50 was 9.98 µM. This EC50 and that of the molecule before are within 1.5-fold of each other.

Take Ac-FDA[Az″]DDAAFV[S8]FWQ-NH2 (staple 4-11, Stapled peptide composition) [I-35]: the EC50 was determined as 9.54 µM. The EC50 values of the last two molecules are within 1.5-fold of each other.

As to B9, the EC50 is ≥ 10 µM.

As to B10, the EC50 was ≥ 10 µM.

The values above are taken from US20240116985A1 (published 2024).
